# Assay: yeast display, Sf9 membrane polyspecificity reagent, FACS + sequencing; frameworks hold sequencing errors
# Outline: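 Sorting gates, low and high (top ~1%), were placed on anti-HA fluorescence to track expression and on streptavidin fluorescence to track reagent binding. A clone's polyreactivity label is taken from the gate it came out of. The reagent was 10% biotinylated, detergent-solubilized Sf9 membrane, applied for 1 hour at 4 °C to galactose-induced yeast display cells.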
row,Sequence,polyreactivity (PSR sort gate)
1,QFQLVESGGGLVQAGGSLRLSCAASGFTFYYYTMGWYRQAPGKERELVAAITWRGGSTNYADSVKGRFTISRDNAKNTVYLQMNSLKPEDTAVYYCAAVTYWFWPGMDYWGQGTQVTVSS,low polyreactivity
2,QVQLVESGGGLVQAGGSHRLSCAASGRIFGPYTMGWYRQAPGKERELVAAISLSGGSTYYADSVKGRFTISRDNAKNTVYLQMNRLKAEDTAVYYCNADHPFPQYEGGSWGQGTQVTVSS,low polyreactivity
3,QVQLVESGGGLVQAGGSLRLSSAASGSTFYSYAMRWYRQAPGKERELVAAINWDGVSTYYADSVKGRFSISRDNAMNTVYLQMNSLKPEDTAVYYCAADLFSGYRISGTFYYWGQGTQVTVSS,low polyreactivity
4,QVQLVESGGGLVQAGGSLRLICAASGRTFAPYAMGWYRQAPGKEMQLVAAISSGGGNTYYADSVKGRFTISRDNAKNTVYLQMNSLKPEDTAVYYCNAAQRRGGLGYWGQGTQVTVSS,high polyreactivity
5,QVQLVESGGGLVQAGGSLRLSCAASGSIFLYYAMGWYRPAPGKDRELVAAIRRGGNTNYADSVKGRFTISRDNAKNTVYLQMNSLKPVDTAVYYCAAAQYSRYSRVPNYYAGTYYYWGQGTQVTVSS,low polyreactivity
6,QVQLVESGGGLVQAGGSLRLSCAASGSIFRYYAMGWYRQAPGKERELVAAITASSGNTYYADSVKGRFTISRDNAKNTVYLQMNRLKPEDTSVYYCSKQPGISYRHYDYWGLGTQVTVSS,high polyreactivity
7,QVQLVESGAGLVQAGGSLRLSCAASGSIFEYYAMGWYRQAPGKERELVAAISSGGPTYYADSVKGRFTISRDNAKNTVYLQMNSLKPEDTAVYYCNAALRYPDYDYWGQGTQVTVSS,low polyreactivity
8,QVQLVESGGGLVQAGGSLRLSCAASGSIYGGYAMGWYRQAPGKEREFVAAISRSGSSTYYADSVKGRFTISRDNAKNTVYLQMNSLKPEDTAVYSCAARYAGKAPGYRRYDYWGQGTQVTVSS,high polyreactivity
9,QVQLVESGGGLVQAGGSLRLSCAASGSTFQSYAMGWYRQAPGKERELVAAITTTGTRTYYADSVKGRFTISRDNAKNTVYLQMNSLKPEDTAVYYCNAQRLQAHRTSRRYGYWGQGTQVTVSS,high polyreactivity
10,QVQLVESGGGLVQAGGSLRLSCAASGFTFKINGKGWYRQAPGKEREFVATIRTSTGRTYYADSVKGRFTISRDNAKNTVYLQMNSLKPEDTAVYYCATDYLFERLLQEMDYWGQGTQVTVSS,high polyreactivity
11,QVQLVDSGGGLVQAGGSLRLSCAASGRTFYGNAMGWYRQAPGKARELVAAINRDGGTYYADSVKGRFTISRDNAKNTVYLQMNSLKPEDTAVYYCNAVKRGIRYGYWGQGTQVTVSS,high polyreactivity
12,QVQLVESGGGLVQAGGSLRLSCAASGRIFVYYPMGWYRQAPGIERELVAAINAGGSTNYADSVKGRFTISRDNAKNTVYLQMNSLKPEDTAVYYCAAVRRSRYSYRGYYWGQGTQVTVSS,high polyreactivity
13,QVHLQESRGGLVQAGGSLRLSCAASGIIFDNPNMGCYRQAPGKERELVATINSGATTNYADSVKGRFTISRDNAKNTVYLQMNSLIPEDTAVYYCAVDLSPTYFYYWGQGTQVTVSS,high polyreactivity
14,QDQLVESGGGLVQAGGSLRLSCAASGITFAYYAMGWYTQAPGKERELVAGISKSGGRTYYADSVKGRFTISRDHAKNTVYLQMNSLKPEDTAVYYCAAQDARRIVYYRYYYWGQGTQVTVSS,high polyreactivity
15,QVQLVESGGCLVQARGSLRLRCAASGGTFYAYAMGWYREAPGKERELVAAISRSGSTYYADSVKGRFTISRDNAKNTVYLQMNSLKPEDTAVYYCAARRARRDPVGYVYAKYVYWGQGTQVTVSS,high polyreactivity
16,QVQLVESGGGLVQAGGSLRLSCAASGNIVGSNAMGWYRQAPGKERELVAAISKSGGRTYYADSVKGRFTISRDNAKNTVYLQMNSLKPEDTAVYYCAAYDGYYEFDYWGQGTQVTVSS,low polyreactivity

row,Sequence,polyreactivity (PSR sort gate)
1,QVQLVESGGGLVQAGGSLRLSCAASGSIFYHNAMGWYRQAPGKERELVAAITWSGSTTYYADSVKGRFTISRDYAKNTVYLQMNSLKPEDTAVYYCNAGNRHGHYDYYWGQCTQVTVSS,low polyreactivity
2,QVQLVESGGGLVQAGGSLRLSCAASGSIFADNAMGWDRQAPGKERELVAVISFSGSSTYYADSVKGRFTISRDNAKNTVYFQMNSVKPEDTAVYYWNAVRYRLERFDYWGQGTQVTVSS,high polyreactivity
3,QVQHVESGGGLLQAGGSLRLSCAASGRIFWINAMGWYIQAPGKERELVATISSGSTSYADSVKGRFTITRDNAKNTVYLQMNSLKPEDTAVYYCAVSLRYTRSGAYDYWGQGTQVTVSS,low polyreactivity
4,QVQLVESGGGLVQAGGSLRLSCAASGSIFNVYAMGWYRQAPGKERELVAAISDGDGSTFYADSVKGRFTISRDNAKTTVYLQMNSLKPEDTAVYYCAKDYRWDRKFDYWGQGTQVTVSS,low polyreactivity
5,QVQLVESGGGLVQAGGSLRLSCAASGSIFRYYVMGWYRQAPGKEREFVAAISYRGGSTYYADSVKGRFTISRDNAKNTVYLEMNSLKPEDTAVYFCYAVHYRSFWTPGSNDYWGQGTQVTVSS,high polyreactivity
6,QVQLVDSGGGLVQAGGSLRLSCAASGLTFIRYAMGWYRQAPGKERELVAAITRGGTRTYYADSVKGRFTISRDNAKNTVYLQMNSLKPEDTAVYYCAALSRYGRFDYWGQGTQVTVSS,high polyreactivity
7,QVQLVESGGGLVQAGGSLRLSCAASGRIFGENAMGWYRQAPGKERELVAAINSGGSTSYADSVKGRFTISRDNAKNTVYLQMNSLKPEDTAVYYCAADEIQGFYTHSFEYWGQGTQVTVSS,low polyreactivity
8,QVQLVESGGGLVQAGGSLRLSCAASGRIFHQYAMGWYRQAPGKERELVAAITTRGTSTYYADSVKGRFTISRDNAKNTVYLQMNSLKPEDTAVYYCAAKFFGSVGHVAGDYWGQGTQVTVSS,high polyreactivity
9,QVQLVESGGGLVQAGGSLRLSCADSGSTFRYNAMGWYREAPGKERELVADIRRSGGSTYYADSVKGRFTISRDKAKNTVYLQMNSLKPEDTAVYYCNAAVSRLYYHSYSYRSYYYWGQGTQVTVSS,high polyreactivity
10,QVQLVESGGGLVQAGGSLRLSCASSGSIFSHYAMGWYRQAPGKERELVAAISRSGGSTYYADSVKGRFTISRDNAKNTVYLQMNSLKPEDTAVYYCAKEGDSGDWFDYWGQGTQVTVSS,low polyreactivity
11,QVQLVESGGGLVQAGGSLRLSCAASGFAFSYYAMGWYRPAPGKEREFVASIDWSGGSTYYADSVKGRFTISRDNAKNTVYLQMTSLKPEDTAVYYCAAELDYFPGYDYWGQGTQVTVSS,low polyreactivity
12,QVQLVESGGGLVQAGGSLRLSCAASGSIFKGYAMGWYRQAPGKERELVASITSSGASTYYADSGKGRFTISRDNAKNTVYLHMNSLKPEDTAVYYCATDHESVRVLVSSTSDYDYWGQGTQVTVSS,low polyreactivity
13,QVQLVESGGGLVQAGGSLRLSCAASGYTFRYYAMGWYRQAHGKERELVAAITSSTSSTYYADSVKGRFTISRDNAKNTVYLQMNSLKPEDTAVYYCNRVWSTSMDYWGEGTQVTVSS,high polyreactivity
14,QLQLVESGRGLVQAGGSLRLSCAASGLIFGNYAKRSYRQPPGKESELVAAITSTGITYYADSVKGRFTISRDNAKNTVYLQMTSLKPEDTAVYYCAAASRFHPDRGGYWGQGTQVTVSS,low polyreactivity
15,QVQLVESRGALVQAGGSLRLSCAASGLILWVNAMGWNRQAPGKERELVAAISWSSGSTYYADSVKGRFTISRDNAKNTVYLQMNSLKPEASAVYYCAASVRRTGSICHYYYSGQGTQVTVSS,high polyreactivity
16,QVQLVESGGGLVQAGGSLRLSCAASGLTFSVYAMGWYRQAPGKERELVASISSGGTSTYYADSVKGRFTISRDNAKNTVYLQMNSLKPEDTAVYYCAAYSYYTGDQYSYDYWGQGTQVTVSS,low polyreactivity

# — the nanobody polyreactivity screen of Harvey et al. (2022)
